This passage reports Kd results from patent US20170267776A1 (published 2017).

In test [1] the target is T1, recombinant human RSPO3 protein, biotinylated (captured on streptavidin-coated chips) (human, UniProt Q9BXY4 22-272, limits assumed, biotinylated (sites not given)).
T1 sequence: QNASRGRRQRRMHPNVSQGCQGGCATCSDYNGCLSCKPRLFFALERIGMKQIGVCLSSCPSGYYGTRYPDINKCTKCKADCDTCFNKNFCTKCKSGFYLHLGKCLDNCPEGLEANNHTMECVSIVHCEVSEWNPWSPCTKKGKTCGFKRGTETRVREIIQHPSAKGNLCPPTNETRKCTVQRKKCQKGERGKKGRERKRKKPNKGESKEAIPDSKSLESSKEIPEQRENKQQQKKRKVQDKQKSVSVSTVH
Description: summary of Example 3 (SPR, Biacore 2000). As to the method:
The antibodies were serially diluted 2-fold from 100 nM to 0.78 nM in HBS-P (0.01M HEPES pH 7.4, 0.15M NaCl, 0.005% v/v Surfactant P20) and were injected over the chip surface. Kinetic data were collected over time and were fit using the simultaneous global fit equation to yield affinity constants (KD values) for each antibody.
For orientation: Surface plasmon resonance follows binding to a sensor surface in real time, without labels.

Test [2] has as its target T2, LGR5-Fc fusion protein (mature form containing amino acids 22-564 of human LGR5 fused to human Fc) (human, UniProt O75473 22-564).
T2 construct: range 22-564; Expressed in insect cells (baculovirus) and purified by protein A; also called soluble LGR5-Fc; not shown: human Fc
T2 sequence (looked up): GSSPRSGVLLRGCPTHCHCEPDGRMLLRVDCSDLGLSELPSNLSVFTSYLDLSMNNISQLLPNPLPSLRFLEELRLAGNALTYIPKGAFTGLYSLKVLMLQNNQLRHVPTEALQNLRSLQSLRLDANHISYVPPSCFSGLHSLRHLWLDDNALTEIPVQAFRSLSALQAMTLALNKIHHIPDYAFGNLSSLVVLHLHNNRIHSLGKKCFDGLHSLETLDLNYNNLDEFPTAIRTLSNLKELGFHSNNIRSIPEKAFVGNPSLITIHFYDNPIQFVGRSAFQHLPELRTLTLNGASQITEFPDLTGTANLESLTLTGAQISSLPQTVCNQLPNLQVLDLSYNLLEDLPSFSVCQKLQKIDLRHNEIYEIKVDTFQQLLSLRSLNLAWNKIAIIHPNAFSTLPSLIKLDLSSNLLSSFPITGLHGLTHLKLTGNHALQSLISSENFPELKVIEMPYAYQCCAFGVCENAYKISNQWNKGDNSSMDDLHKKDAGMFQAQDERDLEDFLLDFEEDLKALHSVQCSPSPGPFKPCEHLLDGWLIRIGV
Description: SPR (Biacore 2000): RSPO-Fc immobilised on CM5 chip, soluble LGR5-Fc injected 100 nM to 0.78 nM. On the procedure: Binding affinities between RSPO proteins and LGR5 were analyzed by surface plasmon resonance. A soluble LGR5-Fc construct was generated using standard recombinant DNA techniques. Specifically, amino acids 1-564 of human LGR5 were ligated in frame to human Fc and the recombinant LGR5-Fc fusion protein was expressed in insect cells using baculovirus. The LGR5-Fc fusion protein was purified from the insect medium using protein A chromatography. Cleavage of the LGR5 signal sequence results in a mature LGR5-Fc fusion protein containing amino acids 22-564 of LGR5. […] Two-fold dilutions of soluble LGR5-Fc were injected over the chip surface (100 nM to 0.78 nM). Kinetic data were collected over time using a Biacore 2000 system from Biacore Life Sciences (GE Healthcare) and the data were fit using the simultaneous global fit equation to yield affinity constants (KD values) for each RSPO protein (Table 3).

B1: anti-RSPO3 antibody 131R002 (IgG2) (antibody, V domains shown)
VH: QVQLQESGPELVKPGASVKISCKASGYTFTDYSIHWVKQNHGKSLDWIGYIYPSNGDSGYNQKFKNRATLTVDTSSSTAYLEVRRLTFEDSAVYYCATYFANYFDYWGQGTTLTVSS
VL: DIVLTQSPASLAVSLGQRATISCKASQSVDYDGDSYMNWYQQKPGQPPKLLIYAASNLESGIPARFSGSGSGTDFTLNIHPVEEEDAATYYCQQSNEDPLTFGAGTKLELKR
A word on the Kd: it is the constant that tells how readily two partners part at equilibrium. For B1, the Kd in test [1] is under 10 nM.

B2: anti-RSPO3 antibody 131R003 (IgG2) (antibody, V domains shown)
VH: QVQLKQSGPELVKPGASVKISCKASGYTFTDYSIHWVKQNHGKSLDWIGYIYPSNGDSGYNQKFKNRATLTVDTSYSTAYLEVRRLTFEDSAVYYCATYFANYFDYWGQGTTLTVSS
VL: DIVLTQSPASLAVSLGQRATISCKASQSVDYDGDSYMNWYQQKPGQPPKLLIYAASNLESGIPARFSGSGSGTDFTLNIHPVEEEDAATYYCQQSNEDPLTFGAGTKLELKR
notes: also called parental 131R003
For B2, the equilibrium dissociation constant (Kd) in test [1] is under 10 nM.

B3: RSPO4-Fc fusion protein (full-length human RSPO4 ligated in-frame to a human Fc region) (Fc fusion, UniProt Q2I0M5 20-234, looked up)
chain: LNRRKKQVGTGLGGNCTGCIICSEENGCSTCQQRLFLFIRREGIRQYGKCLHDCPPGYFGIRGQEVNRCKKCGATCESCFSQDFCIRCKRQFYLYKGKCLPTCPPGTLAHQNTRECQGECELGPWGGWSPCTHNGKTCGSAWGLESRVREAGRAGHEEAATCQVLSESRKCPIQRPCPGERSPGQKKGRKDRRPRKDRKLDRRLDVRPRQPGLQP
notes: not shown: human Fc region
In test [2], B3 returned a dissociation constant (Kd) of 73 nM.
